B1: Rv0577 (Putative glyoxylase Cfp32) on the Mtb proteome microarray (natural protein)
chain: MPKRSEYRQGTPNWVDLQTTDQSAAKKFYTSLFGWGYDDNPVPGGGGVYSMATLNGEAVAAIAPMPPGAPEGMPPIWNTYIAVDDVDAVVDKVVPGGGQVMMPAFDIGDAGRMSFITDPTGAAVGLWQANRHIGATLVNETGTLIWNELLTDKPDLALAFYEAVVGLTHSSMEIAAGQNYRVLKAGDAEVGGCMEPPMPGVPNHWHVYFAVDDADATAAKAAAAGGQVIAEPADIPSVGRFAVLSDPQGAIFSVLKPAPQQ
B2: Rv3241c (Ribosome hibernation promotion factor, Hpf) on the Mtb proteome microarray (natural protein)
chain: MSRLAVDSGQVLAEPKSNAEIVFKGRNVEIPDHFRIYVSQKLARLERFDRTIYLFDVELDHERNRRQRKSCQRVEITARGRGPVVRGEACADSFYAALESAVVKLESRLRRGKDRRKVHYGDKTPVSLAEATAVVPAPENGFNTRPAEAHDHDGAVVEREPGRIVRTKEHPAKPMSVDDALYQMELVGHDFFLFYDKDTERPSVVYRRHAYDYGLIRLA

Biological target: T1, myc-tagged SMAD2 (human, UniProt Q15796 1-467, labeled with Cy3)
T1 construct: SMAD2, human; also called SMAD2-myc; source: cloned into pCMV-C-myc vector, purified as previously reported (Li et al., 2013)
Test: peptide or protein array
Conditions: both partners purified

T1 sequence (Q15796 whole entry): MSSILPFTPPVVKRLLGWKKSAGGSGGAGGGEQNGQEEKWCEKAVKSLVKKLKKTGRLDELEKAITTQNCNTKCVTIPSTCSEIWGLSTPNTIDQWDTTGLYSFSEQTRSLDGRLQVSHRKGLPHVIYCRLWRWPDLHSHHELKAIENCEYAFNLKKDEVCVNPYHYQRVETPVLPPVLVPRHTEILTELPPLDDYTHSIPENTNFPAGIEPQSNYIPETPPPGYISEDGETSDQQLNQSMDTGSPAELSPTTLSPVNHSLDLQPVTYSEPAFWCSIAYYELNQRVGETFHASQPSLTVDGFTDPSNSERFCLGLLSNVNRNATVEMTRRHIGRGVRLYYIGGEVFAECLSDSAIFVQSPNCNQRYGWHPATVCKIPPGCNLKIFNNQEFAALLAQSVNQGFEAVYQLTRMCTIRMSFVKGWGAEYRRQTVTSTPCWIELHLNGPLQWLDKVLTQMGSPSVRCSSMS

| Binder | binding result |
| --- | --- |
| B1 | binds |
| B2 | binds |

From publication PMC6448480, “A Two-Way Proteome Microarray Strategy to Identify Novel Mycobacterium tuberculosis-Human Interactors” (Frontiers in Cellular and Infection Microbiology, 2019)
